# Test results: the supplement of paper PMC9170038
# Test system: MS2 coat protein
# Assay: apparent KD of MS2 coat protein; designed switch direction (-1 OFF switch, 1 ON switch): 1; higher = weaker reporter binding
# Method in brief: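 Transcription of designed RNA switches on Illumina chips was done by stalled E. coli RNA polymerase. SNAP-549-labelled MS2 coat protein was then titrated in doubling steps from 0.7 or 1.5 nM to 3 µM, with steps of 0.8–1.5 h at the lowest and 10–20 min at the highest concentration. The per-design median over clusters of curve-fitted normalised fluorescence is reported as apparent KD.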
# [1] = Eterna round: R95, input ligand: FMN 200 uM
# [2] = Eterna round: R95, input ligand: microRNA oligo, concentration not stated
# [3] = Eterna round: R95, input ligand: none
# [4] = input ligand: microRNA oligo, concentration not stated
Sequence,apparent KD of MS2 coat protein [1] [nM],apparent KD of MS2 coat protein [2] [nM],apparent KD of MS2 coat protein [3] [nM],apparent KD of MS2 coat protein (input ligand: FMN 200 uM) [nM],apparent KD of MS2 coat protein [4] [nM],apparent KD of MS2 coat protein (input ligand: none) [nM]
AUUAAACAUGAGGAUCACCCAUGUCAACAAAGUCGAGGAUAUGGGCAAAUUAAAUAAGAACCAGAAGGCGAAUAAU [salish99_ss1_r3_060] (puzzle: Same State 1),35.9,189,269,,,
"AAUUAAGAUUGAGGAUAUCACGUCGAUUAGACGUGAGAAGGCGAUCAUAACAUGAGGAUCACCCAUGUAUUACAUGAAUUAAUU [SSNG1/5-B2] (Eterna round: R96, puzzle: Same State NG 1)",,,,31.9,26.2,36.6
"UUCACCUUAUUUUACAUGAGGAUCACCCAUGUUUUUUUUACGUAGGAUAUCGAUGCUUGUUUAUUCGAGAAGGACGAUGUAAGU [JR_SSND3_Sub053] (Eterna round: R96, puzzle: Same State NG 3)",,,,,28,
CGAUGAAACUAAGGAAGAAGAGUUGAAGUACAUGAGGAUCACCCAUGUCAGAGCUUUUUGCUCGUCAUGAACAGGAA [JR_SHM208a_Sub005] (puzzle: Sensor for hsa-mir-208a),51.9,32.2,52.8,,,
"AUUGGGUAACGAGGAUAUCGUUUUUGUUUUUUUCGAGAAGGCGUUAUAGUUUCUUUCUAUUGUUACAUGAGGAUCACCCAUGUU [JR_SSNG1_Sub053] (Eterna round: R96, puzzle: Same State NG 1)",,,,15.8,16.2,16.5
GCUACAUCGAGCGAGGAUAUGCGGCGUAUAACAUGAGGAUCACCCAUGUCCUUCGAAUCGAGUACGCAGAAGGCGCUACGGUAGC [Big Heel] (puzzle: Same State 2),77.6,277,551,,,
"UUAAUUUACUGAGGAUAUCGUGUCGACUGAGGUGACAUGAGGAUCACCCAUGUGAGAAGUGGUAUCGAGAAGGCAGUAUUCAUA [JR_SSNG2_Sub022] (Eterna round: R96, puzzle: Same State NG 2)",,,,92.6,306,506
GAGAAGAGGGACAAGGAUAUGUCAGGAGAGACAUGAGGAUCACCCAUGUAGAGGAAGAGAGAGAGACAGAAGGUGUCGAGAGCGA [JR_SS2_Sub015] (puzzle: Same State 2),118,66,130,,,
"AUUGUUAAUGCAGGAUAUGAUUAACAUGAGGAUCACCCAUGUGGUGUUGUGAGUAAGGAGAGUGAUCAGAAGGGCAUUUUUUUU [JMF's solution 31] (Eterna round: R96, puzzle: Same State NG 2)",,,,826,810,616
"UGUUGUAUUACAGGAUAUCUAUGAUUUUAAUUUAGAGAAGGGUAUUCACAUGAGGAUCACCCAUGUAUAUACGAGGAAGUUGUG [JMF's solution 63] (Eterna round: R96, puzzle: Same State NG 1)",,,,,40.2,
GGAGCCAGCACCGAGGAUAUUCAUAUUAAAACAUGAGGAUCACCCAUGUAGGCCAGAAGGCCUUGGGAGAAGGCGGACUGGCUCG [Xeonanis - 11] (puzzle: Same State 2),28.5,221,976,,,
"UACGCGAGAGGAGGAUAUGCAGAGGAUCACCCUGUAGAAGGCCUCAUAAGGAGGAUAUGCAGAGGAUCACCCUGUAGAAGGCCU [pwkr ssNG DX.22] (Eterna round: R96, puzzle: Same State NG 1)",,,,345,67.9,129
AAGAGAGGAAGCGAGGAUAUCGUGGGAGGGACAUGAGGAUCACCCAUGUAGGAUGUAGAGAGGAACGAGAAGGCGCAGGAAAGAA [JR_SS2_Sub073] (puzzle: Same State 2),49,67.7,79.2,,,
"GGAGCCAAGGCAGGAUAUUCAUAUAAAUAAACAUGAGGAUCACCCAUGUAGGCCAGAAGGCCUUGGGAGAAGGGCCAUGGCUCG [Xeonanis - 13 mod6] (Eterna round: R96, puzzle: Same State NG 2)",,,,19.4,69.8,121
"GCUCGCACGAUGACCCACAUGAGGAUCACCCAUGUGCUUGGGCAGGAUAUCUAGAUUAAGGAUGUAGAGAAGGGUCGAGCGAGC [SameState NG3 #28] (Eterna round: R96, puzzle: Same State NG 3)",,,,303,69.6,243
UCUUGGUUUUUGCUCGUUUUUUGUGUUGAACAUGAGGAUCACCCAUGUAUUGUACGGUCCAAUUUGAUAGUGGUCCG [JMF 28] (puzzle: Sensor for hsa-mir-208a),25.5,14.9,25.7,,,

Sequence,apparent KD of MS2 coat protein [1] [nM],apparent KD of MS2 coat protein [2] [nM],apparent KD of MS2 coat protein [3] [nM],apparent KD of MS2 coat protein (input ligand: FMN 200 uM) [nM],apparent KD of MS2 coat protein [4] [nM],apparent KD of MS2 coat protein (input ligand: none) [nM]
"GCGGAAUGGUGUGACAUGAGGAUCACCCAUGUAACCUCAUGUAAGGAUAUCGGGAAGAAGAAAACCGAGAAGGUACGGUGACGC [AK SSNG3-V2-28] (Eterna round: R96, puzzle: Same State NG 3)",,,,197,145,165
AGUCCAGCCUGAGCUGGACAAAAGCAUGUACAUGAGGAUCACCCAUGUUCAUGUACAAGCUUUUUGCUCGUCUUGCU [salish99_208a_r3_105x] (puzzle: Sensor for hsa-mir-208a),578,15.7,680,,,
GGGCCAGCUUGUGCUGGGCCUUCGCAUGCACAUGAGGAUCACCCAUGUCGUGUACAUGCUUGGUGCCCGUCUUUCCC [Photon Torp-14] (puzzle: Sensor for hsa-mir-208a),84.5,20.9,85.8,,,
"CCAAUGUACAAUUUAGAUCUACAUGAGGAUCACCCAUGUACAGAGGAUAUCAGCUCGUUUAGAGCUGAGAAGGCUGAAUUAAUU [SSNG3/3-A3] (Eterna round: R96, puzzle: Same State NG 3)",,,,111,139,327
"UUGCUCGUGUGAGGAUAUGCCGCCGUUUCGGCUGCAGAAGGUACUACGUUACAUGAGGAUCACCCAUGUCUCUGUUGUUUCGUG [salish99_SSNG1_r04_940] (Eterna round: R96, puzzle: Same State NG 1)",,,,18.1,13.9,16.5
"GUGGUCAGACAUGAGGAUCACCCAUGUGGAAUAAAUAACACACAGGAUAUCCAAUAUAAAAUAUAGGAGAAGGGUGGAUUGGUG (Eterna round: R96, puzzle: Same State NG 3)",,,,,176,
CUCAAAACAAGUUGCAGUGUUCGUCUUUAACAUGAGGAUCACCCAUGUAAUAGCCUGGUGGAAGCGCUCGGGCCACC [Qurabila] (puzzle: Sensor for hsa-mir-208a),23.4,15.6,25.1,,,
GGAGCCGGCACUGAGGAUAUUCAUAUUAAAACAUGAGGAUCACCCAUGUAGGCCAGAAGGCCUUGGGAGAAGGCAGGUCGGCUCG [salish99_ss2_r3_075] (puzzle: Same State 2),27.1,408,901,,,
"AUACAUGAGGAUCACCCAUGUAAUUAAUUAACUAGUAAGAUCUAGGAUAUCAGCUCGUUUAGAGCUGAGAAGGAGAUCACAUGU [SSNG3/21-A3] (Eterna round: R96, puzzle: Same State NG 3)",,,,,28.8,
"GGUCGGAACCACAUGAGGAUCACCCAUGUUCCGGAAACGGCACAGGAUAUCUGUCCGAAAAGGUCAGAGAAGGGUGAACCGACC [Fiskers NG3ss - 76] (Eterna round: R96, puzzle: Same State NG 3)",,,,285,247,445
GACAUUCUAUCUCAGGAUAUCAUGUCAAAGACAUGAGGAUCACCCAUGUACCAGGAAACUGGUUAUGAGAAGGGAGAUAGAAUGA [Mat - Same State 2 - Mod - D46] (puzzle: Same State 2),103,1880,176,,,
"UUGAACAAUUAAGGAUAUCGAGUACAUAUGUUAAACAUGAGGAUCACCCAUGUGGGUUGCGGUAUCGAGAAGGUAAAUUAGAAG [Mat - Same State NG 2 - JL mod - D57] (Eterna round: R96, puzzle: Same State NG 2)",,,,22.8,25.3,34
"GCUCGUAUCACAACCAACAUGAGGAUCACCCAUGUAUGUUGGUAGGAUAUCUAUAUUAAGGAUAUAGAGAAGGGCCGAACGAGC [SameState NG3 #12] (Eterna round: R96, puzzle: Same State NG 3)",,,,53.7,59.7,82.3
"AUGAAUUUGCGAGGAUAUCGUUUGUUGAAGUUACGAGAAGGCGCUCACUUUACAUGAGGAUCACCCAUGUUUAUGAUAUAUGAU [JR_SSNG1_Sub074] (Eterna round: R96, puzzle: Same State NG 1)",,,,24.1,30,37.1
"GCUUCACAUGAGGAUCACCCAUGUCUUCGGAGUCGAGGAUAUGGUAACUGUAAACAGUUGCCAGAAGGCGAGGAGC [SS1 - Son of Teenbexe v9] (Eterna round: R96, puzzle: Same State 1)",,,,48.8,55.3,66
"UAGAUUCACGUAGGAUAUCGACCUACAUGAGGAUCACCCAUGUUUUUGAAUAGAUUUUUUAGUUACGAGAAGGACGUUAUGUAU [JR_SSNG2_Sub063] (Eterna round: R96, puzzle: Same State NG 2)",,,,96,210,473
